Test results taken from US20260062488A1.
“And” between values parts separate entries of the source, which are not always exact repeats. Equal entries are not always repeated. Where two headings read alike, the source gives them in different places.

Key:
[1] = target: cynomolgus α4β7 integrin (cynomolgus monkey); assay: blockade of CHOK1-cα4β7 cell adhesion to MAdCAM-1, representative experiment; the two IC50 lines under the plot bear no name: the higher one is given to Ab-Vedo, whose curve lies clearly right of Ab-m1's (midpoint near log -0.9 ug/ml)
[2] = target: human α4β7 integrin (human) (UniProt P13612); assay: blockade of RPMI 8866 cell binding to immobilised gp120-V2 WT peptide
[3] = target: human α4β7 integrin (human) (UniProt P13612); assay: row IC50 (pM) HuT78 of the binning table (assay not explained, presumably adhesion to MAdCAM-1)
[4] = target: human α4β7 integrin (human) (UniProt P13612); assay: blockade of MAdCAM-1 mediated HuT78 cell adhesion
[5] = target: human α4β1 integrin (human) (UniProt P05556); assay: FACS, 1 µg/ml, CHOK1-hα4β1 cells
[6] = target: human α4β7 integrin (human) (UniProt P13612); assay: blockade of HuT78 cell adhesion to MAdCAM-1
[7] = target: human α4β7 integrin (human) (UniProt P13612); assay: virion capture, Protein G plate, HIV BCF06, p24 gag
[8] = target: cynomolgus αEβ7 integrin (cynomolgus monkey); assay: FACS, 1 µg/ml, BaF3-cαEβ7 cells
[9] = target: human α4β7 integrin (human) (UniProt P13612); assay: ELISA on coated α4β7+GFP+VLPs
[10] = target: human α4β7 integrin (human) (UniProt P13612); assay: blockade of HuT78 cell adhesion to MAdCAM-1; remark: listed apart in the source
[11] = target: human α4β7 integrin (human) (UniProt P13612); assay: FACS, primary human CD4+ memory T cells
[12] = target: cynomolgus α4β7 integrin (cynomolgus monkey); assay: FACS, cyno CD8+ total
[13] = target: human α4β7 integrin (human) (UniProt P13612); assay: virion capture, Protein G plate, HIV CMU08, p24 gag
[14] = target: human α4β7 integrin (human) (UniProt P13612); assay: competitive FACS, 50x excess of non-labelled competitor Ab-Abri
[15] = target: human α4β7 integrin (human) (UniProt P13612); assay: competitive FACS, 50x excess of non-labelled competitor Ab-Vedo
[16] = target: human α4β7 integrin (human) (UniProt P13612); assay: blockade of HuT78 cell adhesion to plate-bound MAdCAM-1, representative experiment; the two IC50 lines under the plot bear no name: the higher one is given to Ab-Vedo, whose curve lies right of Ab-m1's (midpoint near log -1.8 ug/ml)
[17] = target: human α4β7 integrin (human) (UniProt P13612); assay: FACS, human CD8+ naïve
[18] = target: human α4β7 integrin (human) (UniProt P13612); assay: ELISA on plates coated with α4β7+GFP+VLPs; table drawn under the plot, without unit: unit from the axis '[Ab] (nM)'; the text prints the rounded 0.058 nM
[19] = target: human αEβ7 integrin (human) (UniProt P38570); assay: FACS, 1 µg/ml, BaF3-hαEβ7 cells
[20] = target: human α4β7 integrin (human) (UniProt P13612); assay: human lymphocytes, printed as plate-based cell adhesion blockade to MAdCAM-1
[21] = target: human αEβ7 integrin (human) (UniProt P38570); assay: FACS, 1 µg/ml, BaF3-hαEβ7 cells; remark: listed apart in the source
[22] = target: cynomolgus α4β7 integrin (cynomolgus monkey); assay: blockade of CHOK1/cα4β7 adhesion to MAdCAM-1
[23] = target: human α4β7 integrin (human) (UniProt P13612); assay: FACS titration on BaF3-hα4β7
[24] = target: human α4β1 integrin (human) (UniProt P05556); assay: FACS, 1 µg/ml, CHOK1-hα4β1 cells; remark: listed apart in the source
[25] = target: human α4β7 integrin (human) (UniProt P13612); assay: virion capture, Protein G plate, HIV RU570, p24 gag
[26] = target: human α4β7 integrin (human) (UniProt P13612); assay: FACS, 1 µg/ml, BaF3-hα4β7 cells
[27] = target: human α4β7 integrin (human) (UniProt P13612); assay: competitive FACS, 50x excess of non-labelled competitor Ab-Etro
[28] = target: cynomolgus α4β7 integrin (cynomolgus monkey); assay: FACS, cyno CD4+ total
[29] = target: cynomolgus α4β7 integrin (cynomolgus monkey); assay: FACS, cyno CD8+ naïve
[30] = target: cynomolgus α4β7 integrin (cynomolgus monkey); assay: FACS, cyno CD8+ memory
[31] = target: cynomolgus α4β7 integrin (cynomolgus monkey); assay: FACS, 1 µg/ml, CHOK1-cα4β7 cells
[32] = target: human α4β7 integrin (human) (UniProt P13612); assay: FACS, human CD8+ total
[33] = target: human α4β7 integrin (human) (UniProt P13612); assay: virion capture, Protein G plate, HIV YBF30, p24 gag
[34] = target: human α4β7 integrin (human) (UniProt P13612); assay: virion capture, Protein G plate, HIV NL4-3, p24 gag
[35] = target: human α4β7 integrin (human) (UniProt P13612); assay: HuT78 cells, FACS-based blockade of MAdCAM-1 binding
[36] = target: human α4β7 integrin (human) (UniProt P13612); assay: flow cytometry, HuT78 cells
[37] = target: human α4β7 integrin (human) (UniProt P13612); assay: FACS, human CD4+ naïve
[38] = target: cynomolgus αEβ7 integrin (cynomolgus monkey); assay: FACS, 1 µg/ml, BaF3-cαEβ7 cells; remark: listed apart in the source
[39] = target: human α4β7 integrin (human) (UniProt P13612); assay: FACS, 1 µg/ml, BaF3-hα4β7 cells; remark: listed apart in the source
[40] = target: cynomolgus α4β7 integrin (cynomolgus monkey); assay: FACS, cyno CD4+ naïve
[41] = target: cynomolgus α4β7 integrin (cynomolgus monkey); assay: blockade of CHOK1-cα4β7 cell adhesion to MAdCAM-1
[42] = target: mouse α4β7 integrin (mouse) (UniProt Q00651); assay: FACS, 1 µg/ml, CHOK1-mα4β7 cells
Sequence of mouse α4β7 integrin (mouse) (Q00651 41-1039, chain 1 of 2): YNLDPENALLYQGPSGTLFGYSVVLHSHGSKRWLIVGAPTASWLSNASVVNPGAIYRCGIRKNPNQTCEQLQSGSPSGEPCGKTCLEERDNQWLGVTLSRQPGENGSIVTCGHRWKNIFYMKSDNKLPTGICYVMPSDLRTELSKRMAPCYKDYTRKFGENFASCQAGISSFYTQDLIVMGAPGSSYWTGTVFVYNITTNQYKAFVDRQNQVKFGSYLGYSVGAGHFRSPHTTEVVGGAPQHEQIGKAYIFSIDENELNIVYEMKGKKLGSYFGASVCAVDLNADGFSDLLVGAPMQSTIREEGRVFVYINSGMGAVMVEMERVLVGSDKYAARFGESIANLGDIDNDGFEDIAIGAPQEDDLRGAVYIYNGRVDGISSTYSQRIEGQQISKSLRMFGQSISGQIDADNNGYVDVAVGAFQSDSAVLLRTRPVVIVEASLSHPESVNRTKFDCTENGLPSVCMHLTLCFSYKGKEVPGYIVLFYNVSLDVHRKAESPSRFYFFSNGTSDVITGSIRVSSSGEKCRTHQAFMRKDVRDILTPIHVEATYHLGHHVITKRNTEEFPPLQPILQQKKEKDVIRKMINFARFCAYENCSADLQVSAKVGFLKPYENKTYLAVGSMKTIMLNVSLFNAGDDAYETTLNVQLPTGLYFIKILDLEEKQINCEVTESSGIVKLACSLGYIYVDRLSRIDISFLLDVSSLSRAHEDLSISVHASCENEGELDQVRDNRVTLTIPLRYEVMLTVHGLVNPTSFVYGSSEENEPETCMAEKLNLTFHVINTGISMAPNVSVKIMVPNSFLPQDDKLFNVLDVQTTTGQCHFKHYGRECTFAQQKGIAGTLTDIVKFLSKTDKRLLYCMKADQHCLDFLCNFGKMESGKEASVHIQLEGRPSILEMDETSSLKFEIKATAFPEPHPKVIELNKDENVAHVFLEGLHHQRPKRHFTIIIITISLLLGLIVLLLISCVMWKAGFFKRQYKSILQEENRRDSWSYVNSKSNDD
Sequence of mouse α4β7 integrin (mouse) (P26011 20-806, chain 2 of 2, further chain): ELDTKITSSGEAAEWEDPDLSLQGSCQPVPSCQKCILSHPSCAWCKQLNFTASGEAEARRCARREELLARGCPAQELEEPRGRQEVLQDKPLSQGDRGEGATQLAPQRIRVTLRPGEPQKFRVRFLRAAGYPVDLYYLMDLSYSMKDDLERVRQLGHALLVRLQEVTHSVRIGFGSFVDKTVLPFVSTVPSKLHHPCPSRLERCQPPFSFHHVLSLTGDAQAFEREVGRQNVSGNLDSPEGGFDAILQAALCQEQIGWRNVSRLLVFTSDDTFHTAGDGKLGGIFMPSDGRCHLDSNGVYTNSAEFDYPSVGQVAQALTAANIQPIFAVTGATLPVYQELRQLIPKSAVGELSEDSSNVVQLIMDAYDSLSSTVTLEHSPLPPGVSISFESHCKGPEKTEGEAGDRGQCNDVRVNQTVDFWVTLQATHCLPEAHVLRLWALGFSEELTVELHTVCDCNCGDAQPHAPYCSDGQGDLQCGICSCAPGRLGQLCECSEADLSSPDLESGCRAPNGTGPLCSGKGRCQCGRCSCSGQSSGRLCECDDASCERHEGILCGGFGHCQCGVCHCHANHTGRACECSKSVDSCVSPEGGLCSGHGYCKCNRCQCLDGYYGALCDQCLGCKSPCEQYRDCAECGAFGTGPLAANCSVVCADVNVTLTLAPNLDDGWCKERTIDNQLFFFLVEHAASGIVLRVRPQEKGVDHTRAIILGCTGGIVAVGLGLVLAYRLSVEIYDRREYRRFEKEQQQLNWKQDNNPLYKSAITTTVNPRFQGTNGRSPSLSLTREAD

[43] = target: human α4β7 integrin (human) (UniProt P13612); assay: competitive FACS, 50x excess of non-labelled competitor Ab-m1
[44] = target: human α4β7 integrin (human) (UniProt P13612); assay: FACS, human CD4+ total
[45] = target: cynomolgus α4β7 integrin (cynomolgus monkey); assay: blockade of CHOK1-cα4β7 cell adhesion to MAdCAM-1; remark: listed apart in the source
[46] = target: cynomolgus α4β7 integrin (cynomolgus monkey); assay: FACS, 1 µg/ml, CHOK1-cα4β7 cells; remark: listed apart in the source
[47] = target: human α4β7 integrin (human) (UniProt P13612); assay: binding to human lymphocytes
[48] = target: human α4β7 integrin (human) (UniProt P13612); assay: cell-based or functional assay

Sequence of Ab-Vedo (antibody) (VH): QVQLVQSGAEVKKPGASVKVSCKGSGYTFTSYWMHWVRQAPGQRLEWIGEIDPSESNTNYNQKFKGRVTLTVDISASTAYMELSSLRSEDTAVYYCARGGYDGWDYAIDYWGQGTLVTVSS
Sequence of Ab-Vedo (antibody) (VL): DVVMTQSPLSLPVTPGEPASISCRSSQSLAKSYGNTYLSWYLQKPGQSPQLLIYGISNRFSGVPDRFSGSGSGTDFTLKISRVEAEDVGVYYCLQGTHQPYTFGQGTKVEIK

**Q.** Which IC50 [1] does the source give for Ab-Vedo (antibody) here?
**A.** 0.822 nM

**Q.** And the IC50 [2]?
**A.** 0.042 µg/mL

**Q.** And the IC50 [3]?
**A.** 0.089 nM

**Q.** What about the IC50 [4] of the same substance?
**A.** 0.031 nM and 0.06 nM

**Q.** What about the FACS MFI [5] of the same substance?
**A.** 4.23 MFI

**Q.** And the IC50 [6]?
**A.** 0.0574 nM

**Q.** What about the Max inhibition (%) [6] of the same substance?
**A.** 94.7%

**Q.** And the EC50 [7]?
**A.** 0.37 nM and 0.056 µg/mL

**Q.** What about the FACS MFI [8] of the same substance?
**A.** 60.9 MFI

**Q.** And the EC50 [9]?
**A.** 0.058 nM

**Q.** What about the IC50 [10] of the same substance?
**A.** 0.0949 nM

**Q.** What about the Max inhibition (%) [10] of the same substance?
**A.** 86.5%

**Q.** What about the EC50 [11] of the same substance?
**A.** 0.0432 nM

**Q.** What about the EC50 [12] of the same substance?
**A.** 0.199 nM

**Q.** And the EC50 [13]?
**A.** 0.5 nM and 0.075 µg/mL

**Q.** And the percentage of binding inhibition [14]?
**A.** 89%

**Q.** And the percentage of binding inhibition [15]?
**A.** 88%

**Q.** And the IC50 [16]?
**A.** 0.0981 nM

**Q.** And the EC50 [17]?
**A.** 0.727 nM

**Q.** What about the EC50 [18] of the same substance?
**A.** 0.0582 nM

**Q.** What about the FACS MFI [19] of the same substance?
**A.** 19.5 MFI

**Q.** And the IC50 [20]?
**A.** 0.63 nM

**Q.** What about the FACS MFI [21] of the same substance?
**A.** 11.6 MFI

**Q.** What about the IC50 [22] of the same substance?
**A.** 0.12 nM

**Q.** What about the EC50 [23] of the same substance?
**A.** 0.713 nM

**Q.** And the Max MFI [23]?
**A.** 848 MFI

**Q.** And the FACS MFI [24]?
**A.** 2.87 MFI

**Q.** And the EC50 [25]?
**A.** 0.32 nM and 0.048 µg/mL

**Q.** And the FACS MFI [26]?
**A.** 153 MFI

**Q.** And the percentage of binding inhibition [27]?
**A.** 18%

**Q.** And the EC50 [28]?
**A.** 0.202 nM

**Q.** And the EC50 [29]?
**A.** 0.256 nM

**Q.** What about the EC50 [30] of the same substance?
**A.** 0.204 nM

**Q.** And the FACS MFI [31]?
**A.** 46.5 MFI

**Q.** What about the EC50 [32] of the same substance?
**A.** 0.658 nM

**Q.** And the EC50 [33]?
**A.** 0.48 nM and 0.072 µg/mL

**Q.** What about the EC50 [34] of the same substance?
**A.** 0.34 nM and 0.05 µg/mL

**Q.** What about the IC50 [35] of the same substance?
**A.** 0.193 nM

**Q.** And the EC50 [36]?
**A.** 0.911 nM

**Q.** What about the EC50 [37] of the same substance?
**A.** 0.381 nM

**Q.** What about the FACS MFI [38] of the same substance?
**A.** 57.2 MFI

**Q.** What about the FACS MFI [39] of the same substance?
**A.** 707 MFI

**Q.** What about the EC50 [40] of the same substance?
**A.** 0.228 nM

**Q.** And the IC50 [41]?
**A.** 0.562 nM

**Q.** And the Max inhibition (%) [41]?
**A.** 76%

**Q.** What about the FACS MFI [42] of the same substance?
**A.** 2.91 MFI

**Q.** And the percentage of binding inhibition [43]?
**A.** 76%

**Q.** What about the EC50 [44] of the same substance?
**A.** 0.381 nM

**Q.** And the IC50 [45]?
**A.** 0.541 nM

**Q.** And the Max inhibition (%) [45]?
**A.** 94.4%

**Q.** And the FACS MFI [46]?
**A.** 101 MFI

**Q.** And the EC50 [47]?
**A.** 0.502 nM

**Q.** “MAdCAM-1 (R&D systems) (from UniProt Q13477 19-317) (ligand)” was tested. Which activated (Ki67+CD25+) human primary CD4+ T cells with plate bound anti-CD3 and MAdCAM-1 (22.6% with anti-CD3 alone) [48] did it give?
**A.** 56.6%
